This is an account of results in patent publication US20220380463A1 (Adimab, published 2022).

To fix the notation:
T1: Cynomolgus CD3εδ Fc heterodimer (Cy CD3ε Fc / CD3δ Fc-HIS) (cynomolgus, UniProt Q95LI8 22-100)
T1 chain 1: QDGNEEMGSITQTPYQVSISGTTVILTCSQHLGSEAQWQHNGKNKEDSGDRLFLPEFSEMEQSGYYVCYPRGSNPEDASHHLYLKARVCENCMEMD
T1 chain 2: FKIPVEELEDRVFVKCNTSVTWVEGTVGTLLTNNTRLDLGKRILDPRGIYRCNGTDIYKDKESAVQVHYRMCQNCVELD

B1: SAD10320_P04_A11 (ADI-57386) (antibody, V domains shown)
VH: QVQLVQSGAEVKKPGASVKVSCKASGFNIKDYYMHWVRQAPGQRLQWMGWIDLENANTIYDAKFQGRVTITRDTSASTAYMELSSLRSEDTAVYYCARDARHRYFYDVWGQGTLVTVSS
VL: DIVMTQSPDSLAVSLGERATINCKSSQSLLNARTGKNYLAWYQQKPGQPPKLLIYWASTRESGVPDRFSGSGSGTDFTLTISSLQAEDVAVYYCKQSYSHGTFGGGTKVEIK
notes: IgG; also called Ab109
B2: SAD10320_P04_D12 (ADI-57392) (antibody, V domains shown)
VH: QVQLVQSGAEVKKPGASVKVSCKASGFNIKDYYMHWVRQAPGQRLEWMGWIDLENANTIYDAKFQGRVTITRDTSASTAYMELSSLRSEDTAVYYCARDAYGHDFYDVWGQGTLVTVSS
VL: DIVMTQSPDSLAVSLGERATINCKSSQSLLNARTGKNYLAWYQQKPGQPPKLLIYWASTRESGVPDRFSGSGSGTDFTLTISSLQAEDVAVYYCKQSYSHRTFGGGTKVEIK
notes: IgG; also called Ab118
B3: SAD10319_P05_B03 (ADI-57400) (antibody, V domains shown)
VH: QVQLVQSGAEVKKPGASVKVSCKASGYTFESYVMHWVRQAPGQRLEWMGWIHSGTGNTDYSQKFQGRVTITRDTSASTAYMELSSLRSEDTAVYYCARDAYGHYFYDHWGQGTLVTVSS
VL: DIVMTQSPDSLAVSLGERATINCKSSQSLLNARTGKNYLAWYQQKPGQPPKLLIYWASTRESGVPDRFSGSGSGTDFTLTISSLQAEDVAVYYCKQSYSRRTFGGGTKVEIK
notes: IgG; also called Ab127
B4: SAD10320_P04_E12 (ADI-57393) (antibody, V domains shown)
VH: QVQLVQSGAEVKKPGASVKVSCKASGFNIKDYYMHWVRQAPGQRLEWMGWIDLENANTIYDAKFQGRVTITRDTSASTAYMELSSLRSEDTAVYYCARDAYGHTFYDVWGQGTLVTVSS
VL: DIVMTQSPDSLAVSLGERATINCKSSQSLLNARTGKNYLAWYQQKPGQPPKLLIYWASTRESGVPDRFSGSGSGTDFTLTISSLQAEDVAVYYCKQSYHVRTFGGGTKVEIK
notes: IgG; also called Ab119
B5: SAD10319_P05_A03 (ADI-57397) (antibody, V domains shown)
VH: QVQLVQSGAEVKKPGASVKVSCKASGYTFNDYAMHWVRQAPGQRLEWMGWIDAGTGNTYYSQKFQGRVTITRDTSASTAYMELSSLRSEDTAVYYCARDAHGHYFYDVWGQGTLVTVSS
VL: DIVMTQSPDSLAVSLGERATINCKSSQSLLNARTGKNYLAWYQQKPGQPPKLLIYWASTRESGVPDRFSGSGSGTDFTLTISSLQAEDVAVYYCKQSYSRRTFGGGTKVEIK
notes: IgG; also called Ab123
B6: SAD10319_P05_B02 (ADI-57399) (antibody, V domains shown)
VH: QVQLVQSGAEVKKPGASVKVSCKASGYTFTSYNMHWVRQAPGPSLEWMGSIDAGTGATDYSQKFQGRVTITRDTSASTAYMELSSLRSEDTAVYYCARDAYHHYFYDVWGQGTLVTVSS
VL: DIVMTQSPDSLAVSLGERATINCKSSQSLLNARTGKNYLAWYQQKPGQPPKLLIYWASTRESGVPDRFSGSGSGTDFTLTISSLQAEDVAVYYCKQSYSRRTFGGGTKVEIK
notes: IgG; also called Ab126
B7: SAD10320_P04_F11 (ADI-57389) (antibody, V domains shown)
VH: QVQLVQSGAEVKKPGASVKVSCKASGFNIKDYYMHWVRQAPGQRLEWMGWIDLENANTIYDAKFQGRVTITRDTSASTAYMELSSLRSEDTAVYYCARDAYGHEFYDVWGQGTLVTVSS
VL: DIVMTQSPDSLAVSLGERATINCKSSQSLLNARTGKNYLAWYQQKPGQPPKLLIYWASTRESGVPDRFSGSGSGTDFTLTISSLQAEDVAVYYCKQGHSRRTFGGGTKVEIK
notes: IgG; also called Ab112
B8: SAD10319_P05_A01 (ADI-57395) (antibody, V domains shown)
VH: QVQLVQSGAEVKKPGASVKVSCKASGYTFTAYTMHWVRQAPGHRLEWMGWINPDTGATDYSQKFQGRVTITRDTSASTAYMELSSLRSEDTAVYYCARDAYHHYFYDVWGQGTLVTVSS
VL: DIVMTQSPDSLAVSLGERATINCKSSQSLLNARTGKNYLAWYQQKPGQPPKLLIYWASTRESGVPDRFSGSGSGTDFTLTISSLQAEDVAVYYCKQSYSRRTFGGGTKVEIK
notes: IgG; also called Ab121
B9: SAD10320_P04_A12 (ADI-57391) (antibody, V domains shown)
VH: QVQLVQSGAEVKKPGASVKVSCKASGFNIKDYYMHWVRQAPGQRLEWMGWIDLENANTIYDAKFQGRVTITRDTSASTAYMELSSLRSEDTAVYYCARDAYGHVFYDVWGQGTLVTVSS
VL: DIVMTQSPDSLAVSLGERATINCKSSQSLLNARTGKNYLAWYQQKPGQPPKLLIYWASTRESGVPDRFSGSGSGTDFTLTISSLQAEDVAVYYCKQSYHHRTFGGGTKVEIK
notes: IgG; also called Ab117
B10: SAD10320_P04_E11 (ADI-57388) (antibody, V domains shown)
VH: QVQLVQSGAEVKKPGASVKVSCKASGFNIKDYYMHWVRQAPGQRLEWMGWIDLENANTIYDAKFQGRVTITRDTSASTAYMELSSLRSEDTAVYYCARDAYGHDFYDVWGQGTLVTVSS
VL: DIVMTQSPDSLAVSLGERATINCKSSQSLLNARTGKNYLAWYQQKPGQPPKLLIYWASTRESGVPDRFSGSGSGTDFTLTISSLQAEDVAVYYCKQSYGHRTFGGGTKVEIK
notes: IgG; also called Ab111
B11: SAD10319_P05_B05 (ADI-57402) (antibody, V domains shown)
VH: QVQLVQSGAEVKKPGASVKVSCKASGYTFVDYAMHWVRQAPGQRLEWMGWIDAGTGNTDYSQKFQGRVTITRDTSASTAYMELSSLRSEDTAVYYCARDAHGHYFYDVWGQGTLVTVSS
VL: DIVMTQSPDSLAVSLGERATINCKSSQSLLNARTGKNYLAWYQQKPGQPPKLLIYWASTRESGVPDRFSGSGSGTDFTLTISSLQAEDVAVYYCKQSYSRRTFGGGTKVEIK
notes: IgG; also called Ab129
B12: SAD10319_P05_A02 (ADI-57396) (antibody, V domains shown)
VH: QVQLVQSGAEVKKPGASVKVSCKASGYTFASYDMHWVRQAPGQRLEWMGWIDAGTGATVYSQKFQGRVTITRDTSASTAYMELSSLRSEDTAVYYCARDAYGHYFYDHWGQGTLVTVSS
VL: DIVMTQSPDSLAVSLGERATINCKSSQSLLNARTGKNYLAWYQQKPGQPPKLLIYWASTRESGVPDRFSGSGSGTDFTLTISSLQAEDVAVYYCKQSYSRRTFGGGTKVEIK
notes: IgG; also called Ab122
B13: SAD10319_P05_C05 (ADI-57405) (antibody, V domains shown)
VH: QVQLVQSGAEVKKPGASVKVSCKASGYTFTSYNMHWVRQAPGPRLEWMGWIDAGTGATHYSQKFQGRVTITRDTSASTAYMELSSLRSEDTAVYYCARDAYHHYFYDVWGQGTLVTVSS
VL: DIVMTQSPDSLAVSLGERATINCKSSQSLLNARTGKNYLAWYQQKPGQPPKLLIYWASTRESGVPDRFSGSGSGTDFTLTISSLQAEDVAVYYCKQSYSRRTFGGGTKVEIK
notes: IgG; also called Ab132
B14: SAD10320_P04_F12 (ADI-57394) (antibody, V domains shown)
VH: QVQLVQSGAEVKKPGASVKVSCKASGFNIKDYYMHWVRQAPGQRLERMGWIDLENANTIYDAKFQGRVTITRDTSASTAYMELSSLRSEDTAVYYCARDAYGHEFYDVWGQGTLVTVSS
VL: DIVMTQSPDSLAVSLGERATINCKSSQSLLNARTGKNYLAWYQQKPGQPPKLLIYWASTRESGVPDRFSGSGSGTDFTLTISSLQAEDVAVYYCKQSYSRRTFGGGTKVEIK
notes: IgG; also called Ab120
B15: SAD10319_P05_C03 (ADI-57404) (antibody, V domains shown)
VH: QVQLVQSGAEVKKPGASVKVSCKASGYTFTSYNMHWVRQAPGQRLEWMGSIDAGTGATDYSQKFQGRVTITRDTSASTAYMELSSLRSEDTAVYYCARDAYHHYFYDVWGQGTLVTVSS
VL: DIVMTQSPDSLAVSLGERATINCKSSQSLLNARTGKNYLAWYQQKPGQPPKLLIYWASTRESGVPDRFSGSGSGTDFTLTISSLQAEDVAVYYCKQSYSRRTFGGGTKVEIK
notes: IgG; also called Ab131
B16: SAD10319_P05_C01 (ADI-57403) (antibody, V domains shown)
VH: QVQLVQSGAEVKKPGASVKVSCKASGYTFTDDAMHWVRQAPGQRLEWMGWIDAGTGNTYYSQKFQGRVTITRDTSASTAYMELSSLRSEDTAVYYCAHDAYGHYFYDVWGQGTLVTVSS
VL: DIVMTQSPDSLAVSLGERATINCKSSQSLLNARTGKNYLAWYQQKPGQPPKLLIYWASTRESGVPDRFSGSGSGTDFTLTISSLQAEDVAVYYCKQSYSRRTFGGGTKVEIK
notes: IgG; also called Ab130
B17: SAD10319_P05_B04 (ADI-57401) (antibody, V domains shown)
VH: QVQLVQSGAEVKKPGASVKVSCKASGYTFTSAVMHWVRQAPGQRLEWMGDINAGTGATDYSQKFQGRVTITRDTSASTAYMELSSLRSEDTAVYYCARDAYGRYFYDVWGQGTLVTVSS
VL: DIVMTQSPDSLAVSLGERATINCKSSQSLLNARTGKNYLAWYQQKPGQPPKLLIYWASTRESGVPDRFSGSGSGTDFTLTISSLQAEDVAVYYCKQSYSRRTFGGGTKVEIK
notes: IgG; also called Ab128
B18: SAD10320_P04_G11 (ADI-57390) (antibody, V domains shown)
VH: QVQLVQSGAEVKKPGASVKVSCKASGFNIKDYYMHWVRQAPGQRLEWMGWIDLENANTIYDAKFQGRVTITRDTSASTAYMELSSLRSEDTAVYYCARDAYRHEFYDVWGQGTLVTVSS
VL: DIVMTQSPDSLAVSLGERATINCKSSQSLLNARTGKNYLAWYQQKPGQPPKLLIYWASTRESGVPDRFSGSGSGTDFTLTISSLQAEDVAVYYCKQSYYHRTFGGGTKVEIK
notes: IgG; also called Ab115
B19: SAD10320_P04_D11 (ADI-57387) (antibody, V domains shown)
VH: QVQLVQSGAEVKKPGASVKVSCKASGFNIKDYYMHWVRQAPGQRLQWMGWIDLENANTIYDAKFQGRVTITRDTSASTAYMELSSLRSEDTAVYYCARDAYGHVFYDVWGQGTLVTVSS
VL: DIVMTQSPDSLAVSLGERATINCKSSQSLLNARTGKNYLAWYQQKPGQPPKLLIYWASTRESGVPDRFSGSGSGTDFTLTISSLQAEDVAVYYCKQSYHHRTFGGGTKVEIK
notes: IgG; also called Ab110
B20: SAD10319_P05_A05 (ADI-57398) (antibody, V domains shown)
VH: QVQLVQSGAEVKKPGASVKVSCKASGYTFTAYTMHWVRQAPGQRLEWMGWINPDTGATDYSQKFQGRVTITRDTSASTAYMELSSLRSEDTAVYYCARDAYHHYFYDVWGQGTLVTVSS
VL: DIVMTQSPDSLAVSLGERATINCKSSQSLLNARTGKNYLAWYQQKPGQPPKLLIYWASTRESGVPDRFSGSGSGTDFTLTISSLQAEDVAVYYCKQSYSRRTFGGGTKVEIK
notes: IgG; also called Ab124

The target of the assay is T1, Cynomolgus CD3εδ Fc heterodimer (Cy …). Nature of the assay: BLI (Octet), IgG on AHC sensor, pH 6.0.
Take B1: the koff came out at 0.00741 s⁻¹.

B2 gave a koff of 0.00259 s⁻¹.

For B3, the off-rate (koff) was 0.0346 s⁻¹.

As to B4, the koff stood at 0.0108 s⁻¹.

For B5, the koff stood at 0.0127 s⁻¹.

Molecule B6 returned a koff of 0.00411 s⁻¹.

With B7, the koff came out at 0.00192 s⁻¹.

As to B8, the koff worked out at 0.0251 s⁻¹.

In the case of B9, the koff was 0.0168 s⁻¹.

Consider B10, for which the koff amounted to 0.00297 s⁻¹.

B11 yielded a koff of 0.00654 s⁻¹.

Regarding B12, the koff came out at 0.0246 s⁻¹.

B13 showed a koff of 0.00821 s⁻¹.

B14: the koff was found to be 0.00259 s⁻¹.

For the molecule B15, the koff amounted to 0.00327 s⁻¹.

B16 showed a koff of 0.013 s⁻¹.

B17 returned a koff of 0.00258 s⁻¹.

B18 returned a koff of 0.00276 s⁻¹.

B19 returned a koff of 0.00338 s⁻¹.

Consider B20, for which the koff was found to be 0.0118 s⁻¹.

For orientation: koff means the rate constant with which the complex falls apart. A high value points to a short-lived complex.
